Reference: PMC9458438
Read-outs that look alike come from different tables or passages of the source.

Key:
[1] = target: T1, ParB-eGFP (Spo0J) (Bacillus subtilis, UniProt P26497 1-282); experiment: single-molecule colocalization with lambda DNA
T1 sequence: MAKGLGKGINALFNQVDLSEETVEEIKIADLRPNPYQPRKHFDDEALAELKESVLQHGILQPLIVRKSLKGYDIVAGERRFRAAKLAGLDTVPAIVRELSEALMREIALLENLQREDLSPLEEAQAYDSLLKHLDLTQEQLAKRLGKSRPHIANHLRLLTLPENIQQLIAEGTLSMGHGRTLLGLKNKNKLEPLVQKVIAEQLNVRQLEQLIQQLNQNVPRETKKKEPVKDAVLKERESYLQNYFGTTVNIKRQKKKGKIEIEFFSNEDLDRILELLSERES

[2] = target: T1, ParB-eGFP (Spo0J); experiment: single-molecule colocalization with lambda DNA; remark: listed apart in the source

B1: ns-oligo-Cy5 (58 bp) (dsDNA)
DNA 1: CGAAGGCTACGTCCAGGAGCGCACCATCTTCTTCAAGGACGACGGCAACTACAAGACC
DNA 2: GGTCTTGTAGTTGCCGTCGTCCTTGAAGAAGATGGTGCGCTCCTGGACGTAGCCTTCG
- binding signal [1]: ~3 fold fewer multimer-oligo complexes than parS-oligo
- binding signal [2]: ~2 fold shorter lifetime than parS-oligo
